Here are results for one molecule from patent publication US20230391872A1 (ANAPTYSBIO, published 2023).

Assay [1] addresses T1, cynomolgus monkey BTLA on cells (stably transfected 293c18 clone 1G5); cynomolgus peripheral blood T and B … (cynomolgus monkey, UniProt A0A2K5W7M7 31-289).
T1 construct: whole, on cells; also called cynomolgus monkey BTLA 293c18 cells
T1 sequence: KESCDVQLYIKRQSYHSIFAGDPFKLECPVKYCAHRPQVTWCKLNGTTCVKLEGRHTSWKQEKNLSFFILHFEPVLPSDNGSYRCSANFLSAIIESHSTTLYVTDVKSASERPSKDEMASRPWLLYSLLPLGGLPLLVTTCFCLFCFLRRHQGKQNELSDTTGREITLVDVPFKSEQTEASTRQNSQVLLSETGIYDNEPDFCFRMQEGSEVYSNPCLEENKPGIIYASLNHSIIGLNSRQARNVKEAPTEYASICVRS
Put plainly: flow cytometry (MFI) on 293c18 cells stably expressing cynomolgus monkey BTLA, goat anti-human kappa-PE detection, four-parameter fit [right panel (Cy BTLA 293c18 cells), EC50 box]. The protocol:
293c18 cell clone 1E4 stably expressing human BTLA construct or clone 1G5 stably expressing cynomolgus monkey BTLA were harvested with Accutase solution (Millipore Sigma/Sigma-Aldrich) and washed once with Phosphate-Buffered Saline, 1% BSA. 293c18 cynomolgus monkey BTLA cells were loaded with the lipophilic carbocyanine dye, DiD (2 μM, 1,1′-dioctadecyl-3,3,3′,3′-tetramenthylindodicarbocyanine; ThermoFisher Scientific) by rocking gently for 10 minutes at room temperature. DiD-stained cells were washed in PBS, 1% BSA and equal amounts of human BTLA 293c18 cells and cynomolgus monkey BTLA 293c18-DiD-stained cells were mixed. Cells (2×10⁵ total cells/sample) were incubated with the indicated concentrations of purified 6G3 IgG4 (two production lots, APE10840.03 and APE10840.04 (H Chain SEQ ID NO: 144, L Chain SEQ ID NO: 174)) or human IgG4 isotype control antibody specific for hen egg lysozyme with gentle shaking for 10 minutes at 4° C. in FACS buffer (PBS, 1% BSA, 0.02% sodium azide). […] Cells were washed and resuspended in FACS buffer and analyzed for fluorescence on a BD FACSArray (BD Biosciences). DiD stained cells expressing cynomolgus monkey BTLA (FIG. 3) were analyzed for median fluorescence intensity (MFI) separately from cells expressing human BTLA (FIG. 3). […]

The target in assay [2] is T1, cynomolgus monkey BTLA on cells (stably …). Put plainly: flow cytometry, AF647-labeled 6G3 IgG4 on cynomolgus monkey peripheral blood CD20+ B cells. The protocol: Blood was then aliquoted into wells and incubated with the indicated concentrations of 6G3-AF647 (APE13766.02), or APC-Mouse Anti-Human CD272 (BTLA) reference antibody (clone J168-540; BD Biosciences) for minutes at room temperature, in the dark. Following incubation, red blood cells were lysed for minutes by addition of 2.0 ml diluted BD Pharm Lyse lysing solution (BD Biosciences), samples centrifuged at 200×g for 5 minutes, washed in FACS Buffer [Dulbecco's PBS, no calcium, no magnesium (Gibco/ThermoFisher Scientific), 25 mM HEPES, pH 7.2, 0.1% BSA, sodium azide] and fixed in 4% paraformaldehyde (200 μl/sample) for 10 minutes at room temperature. Samples were washed twice in FACS Buffer and analyzed for fluorescence on a NovoCyte Quanteon flow cytometer (ACEA Biosciences, Inc.). Data were analyzed using NovoExpress Software (ACEA Biosciences, Inc.). Mean fluorescence intensity (MFI) values were graphed and fit with nonlinear regression analyses in GraphPad Prism (GraphPad Software, Inc.). MFI values for each anti-BTLA antibody on total CD3+cells are shown in FIG. 5A; MFI values for each anti-BTLA antibody on total CD20+cells are shown in FIG. 5B. […] Binding of each anti-BTLA antibody to CD3⁻ cells in FIG. 5C and FIG. 5D (green cells in the bottom quadrants of each panel) reflects the binding to CD20⁺ B cells. […]
(In general: A flow cytometer gives signals particle by particle.)

B1: 6G3 IgG4 anti-BTLA antibody (APE10840 / APE12839 / APE13308) (antibody, V domains shown)
VH: QVQLVQSGAEVKKPGSSVKVSCKASGYVFSTSWMNWVRQAPGQGLEWMGRIYPGDADTNYVGKFKGRVTITADKSTTTAYMELSSLRSEDTAVYFCAKSGTFNFGNYRWYFDVWGKGTTVTVSS
VL: AIQLTQSPSSLSASVGDRVTITCRVSENIYSHLAWYQQKPGKAPKLLIYAATNLALGVPSRFSGSGSGTDYTLTISSLQPEDFATYYCQLFWGPPLTFGGGTKVEIKR
notes: Humanized antibody from a mouse hybridoma, tested as human IgG4 (detected with anti-human kappa); Some assays used labelled lots (DyLight 650, AF647, biotin, DyL488); also called 6G3 antibody; APE10840.03
Consider B1, for which the half-maximal effective concentration (EC50) in assay [1] was 2.3 nM; in assay [2], around 1.4 nM.

By EC50 is commonly meant the concentration at which the effect is half-maximal.
